The values below come from patent US11571480B2, “Multi-ligand drug conjugates and uses thereof” (priority 2015, dated 2023).

Data set [1] relates to breast cancer cell line HCC1954. Briefly: Cytotoxicity test of conjugate LDC10H. In kind it is cell-based, human. Particulars: HCC1954, incubated 15-30 min, then 2-3 days. The method, then: (§1) Culture medium: RPMI 1640 Medium, no folic acid
(§2) 1) human lung cancer cell H1299, ovarian cancer cell SKOV3, breast cancer cell line HCC1954, and human lung cancer cell H460 were incubated at 37° C., 5% CO2 in RPMI 1640 medium containing 10% fetal bovine serum, the cells were passaged every 2-3 days.
(§3) 2) human lung cancer cell H1299, ovarian cancer cell SKOV3, breast cancer cell line HCC1954, and human lung cancer cell H460 were plated at 1×10^3 cells per well (96-well plate) and incubated for 8-12 h at 37° C., 5% CO2.
(§4) 3) Stock solutions of LDC conjugates or control were prepared in PBS solution. 100 μL/well of serially diluted LDC conjugates or control was added to the cells in the plate and incubated for 15-30 min at 37° C., 5% CO2. The culture medium in the wells was then removed by aspiration and the cells were incubated in fresh culture medium without conjugates (150 μL/well) for 2-3 days at 37° C., 5% CO2.
(§5) 4) CellTiter 96® Aqueous One Solution Cell Proliferation Assay (Promega) was added to each well to measure the amount of […] cells, and the plate was incubated in an incubator for 1 h at 37° C., 5% CO2.
(§6) 5) the plate was read at 490 nm on a microplate reader, and the cell survivals were compared for cells with or without the treatment of LDC conjugates. The LDC drug concentrations that are required for 50% cell death (IC50 values) were determined.

In data set [2] the test system is ovarian cancer cell SKOV3. Briefly: Cytotoxicity test of conjugate LDC10H. In kind it is cell-based, human. Conditions: SKOV3, incubated 15-30 min, then 2-3 days. As to the method:
as §1, §2, §3, §4, §5, §6

Data set [3] deals with human lung cancer cell H1299. Nature of the data set: Cytotoxicity test of conjugate LDC10H. Conditions: H1299, incubated 15-30 min, then 2-3 days. In kind it is cell-based. As to the method: as §1, §2, §3, §4, §5, §6
Data set [4] relates to human lung cancer cell H460. Briefly: Cytotoxicity test of conjugate LDC10H. In kind it is cell-based. Particulars: H460, incubated 15-30 min, then 2-3 days. The method, then:
as §1, §2, §3, §4, §5, §6

For another data set, the system named is Transplanted H460 tumor. Nature of the data set: Inhibitory assay of conjugates LDC10B and LDC10H against xenograf tumors. In kind it is in vivo, nude mice. The method, then: (§7) Animal: nude mice, aged 6-8 weeks, female
(§8) 1) human large cell lung cancer cell H460, human lung cancer cell A549, ovarian cancer cell SKOV3, and breast cancer cell line HCC1954 were incubated at 37° C., 5% CO2 in IMDM medium containing 10% fetal bovine serum, the cells were passaged every 2-3 days.
(§9) 2) generation of tumors: 7×10^6 tumor cells were injected subcutaneously into the back of nude mice, and the mice were grouped for treatment after the tumor sizes were as large as about 100-200 mm^3.
(§10) 3) treatment: 3 mice/group, treated with LDC10B, LDC10H, as well as controls MMAE and PBS with doses of 5 and 10 mg/kg every 5 days, three injections.
(§11) 4) the physical performance, body weights and tumor sizes of the animals were monitored. The number of animal death was recorded during the experiment.

Data set [5] deals with Transplanted HCC1954 tumor. The data set is described as above. In kind it is in vivo, nude mice. Particulars: 10 mg/kg. As to the method: as §7, §8, §9, §10, §11
Data set [6] is described as follows: Detection of conjugate concentrations in xenograf tumor models (serum, anti-MMAE ELISA). The class given is in vivo, nude mice. Particulars: 10 mg/kg, peritoneal injection. The method, then:
as §7
1) Human ovarian cancer cell SKOV3 and breast cancer cell line HCC1954 were incubated at 37° C., 5% CO2 in IMDM medium containing 10% fetal bovine serum, the cells were passaged every 2-3 days.
2) generation of tumors: 7×10^6 tumor cells were injected subcutaneously into the back of nude mice, and the mice were grouped for treatment after the tumor sizes were as large as about 100˜200 mm^3.
3) treatment: 3 mice/group, 10 mg/kg, peritoneal injection.
4) blood collection: the time for blood collection before treatment was set as 0, blood was collected at 20 min, 2 h, 4 h, and 24 h after treatment. The blood was centrifuged to collect serum, which was frozen and preserved.
5) Detection: the total amount of MMAE, LDC10B, LDC10H, as well as the MMAE metabolites of LDC10B and LDC10H in serum were detected by mice anti-MMAE ELISA kit.
For orientation: In an ELISA, binding on a coated surface is turned into a signal by an enzyme label.

Molecules are shown by their SMILES. Numbered stars: 1 amine (or outer) side, 2 acyl side, 3 side chain; on linkers, the order of the positions; unused ones are H or OH. Bridge positions count the residues as written; N and C are the ends. Square brackets hold non-standard residues; d marks the D form. Peptide text beside a SMILES is read from it. I, II: the chains in the order shown. * marks the point of attachment. Hexanoyl(6-succinimido-3yl) = O=C1CC([*:1])C(=O)N1CCCCCC(=O)[*:2]; Dolaproine = CO[C@@H]([C@@H]1CCCN1)[C@@H](C)C(=O)O; Dil = CC[C@H](C)[C@H](NC)[C@@H](CC(=O)O)OC; PABC = O=C(OCc1ccc(N[*:1])cc1)[*:2]; X1 = C[C@@H](N*)[C@@H](O)c1ccccc1; Cit = NC(=O)NCCC[C@H](N)C(=O)O; NMeV = CN[C@H](C(=O)O)C(C)C

As a reminder, the IC50 is the concentration that inhibits the measured activity by half. A lower IC50 goes with higher potency. Regarding `CC[C@H](C)[C@@H]([C@@H](CC(=O)N1CCC[C@H]1[C@H](OC)[C@@H](C)C(=O)N[C@H](C)[C@@H](O)c1ccccc1)OC)N(C)C(=O)[C@@H](NC(=O)[C@H](C(C)C)N(C)C(=O)OCc1ccc(NC(=O)[C@H](CCCNC(N)=O)NC(=O)[C@@H](NC(=O)CCCCCN2C(=O)CC(SC[C@H](NC(=O)[C@H](CCCNC(=N)N)NC(=O)[C@H](CCCNC(=N)N)NC(=O)[C@H](CCCNC(=N)N)NC(=O)[C@H](CCCNC(=N)N)NC(=O)[C@H](CCCNC(=N)N)NC(=O)[C@H](CCCNC(=N)N)NC(=O)[C@H](CCCNC(=N)N)NC(=O)[C@H](CCCNC(=N)N)NC(=O)[C@@H](N)CCCNC(=N)N)C(=O)N[C@@H](CCCCN)C(=O)N[C@@H](CCC(=O)O)C(=O)N[C@@H](Cc3ccccc3)C(=O)N[C@@H](CC(C)C)C(=O)N[C@@H](Cc3c[nH]cn3)C(=O)N3CCC[C@H]3C(=O)N[C@@H](CO)C(=O)N[C@@H](CCCCN)C(=O)N[C@H](C(=O)N[C@@H](CC(=O)O)C(=O)N[C@@H](CC(C)C)C(=O)N3CCC[C@H]3C(=O)N[C@@H](CCCNC(=N)N)C(=O)O)C(C)C)C2=O)C(C)C)cc1)C(C)C` (stereo partly shown) [LDC10H] (I: H-RRRRRRRRRCKEFLHPSKVDLPR-OH / II: V[Cit][PABC][NMeV]V[Dil][Dolaproine]-X1; linker I:10-II:N via Hexanoyl(6-succinimido-3yl)), the half-maximal inhibitory concentration (IC50) in data set [1] came to 36 nM; in data set [2], 73.8 nM; in data set [3], 90.4 nM; in data set [4] it was 85.3 nM. Moreover, the “Body weight of mice” value came out at 23.29 g with Transplanted H460 tumor (5 mg/kg, Before Injection); 24.26 g with Transplanted H460 tumor (5 mg/kg, Five days after Injection 1); 23.14 g with Transplanted H460 tumor (5 mg/kg, Five days after Injection 2); 23.22 g with Transplanted H460 tumor (5 mg/kg, Five days after Injection 3); 23.37 g in the data set on Transplanted H460 tumor (10 mg/kg, Before Injection); 24.39 g with Transplanted H460 tumor (10 mg/kg, Five days after Injection 1). The “Body weight of mice” value in the data set on Transplanted H460 tumor (10 mg/kg, Five days after Injection 2) was 22.12 g; in the data set on Transplanted H460 tumor (10 mg/kg, Five days after Injection 3), 23.61 g; in data set [5] (Before Injection), 22.05 g; in data set [5] (Five days after Injection 1), 23.32 g; in data set [5] (Five days after Injection 2), 22.87 g; in data set [5] (Five days after Injection 3), 22.51 g. For the same molecule, the Concentration in serum in data set [6] (20 min) came to 770 ng/mL; in data set [6] (2 h), 580 ng/mL; in data set [6] (4 h), 196 ng/mL; in data set [6] (24 h), 0 ng/mL; in data set [6] (Before Treatment), 0 ng/mL. Besides, the “detected in serum at 24 h after treatment (in words)” value in data set [6] (24 h) is recorded as “none”.
